# Measured values taken from patent publication US20240124556A1, “KERATIN BD-3, PREPARATION METHOD THEREFOR AND PHARMACEUTICAL COMPOSITION AND USE THEREOF” (INSTITUTE OF MATERIA MEDICA, CHINESE ACADEMY OF MEDICAL …, priority 2019, published 2024).
# B1: BD-3: recombinant keratin, amino acid sequence SEQ ID NO:1, expressed in E. coli, band around 43 kD; tested material prepared in Example 4 (protein, listed as Bos taurus)
# chain: MSYSCCLPNLSFRSSCSSRPCVPSSCCGTTLPGACNIPANVGSCNWFCEGSFNGSEKETMQFLNDRLASYLEKVRQLERDNAELESRILERSQQKILANKAENARLVVQIDNAKLAADDFRTKYQTELGLRQLVESDINGLRRILDELTLCKSDLEAQVESLKEELICLKQNHEQEVNTLRSQLGDRLNVEVDAAPTVDLNRVLNETRAQYEALVETNRRDVEEWYIRQTEELNKQVVSSSEQLQSYQAEIIELRRTVNALEVELQAQHNLRDSLENTLTETEARYSCQLAQVQGLIGNVESQLAEIRSDLERQNQEYQVLLDVRARLECEINTYRGLLDSEDCKLPCNPCATTNASSVGSCVTNPCTPCGPRSRFGPCNTFGC
# Assays:
# [1] = tested on: lipopolysaccharide (LPS) induced fever model in SD rats; assay: Lipopolysaccharide (LPS) induced fever in SD rats; assay type: in vivo; settings: for Body temperature 2 hours after modeling / Body temperature 4 hours after modeling / Body temperature 6 hours after modeling / Body temperature 8 hours after modeling: LPS 20 μg/kg i.p.; for Body temperature 2 hours after modeling: model group 37.6 ± 0.1; for Body temperature 4 hours after modeling: model group 37.8 ± 0.1; for Body temperature 6 hours after modeling / Body temperature 8 hours after modeling: model group 37.8 ± 0.2
# Procedure: • Animals: 230-260 grams of male SD rats; • Drugs: lipopolysaccharide (LPS, SIGMA L-2880), aspirin (SIGMA A2093), protein BD-3; Instruments: electronic balance (SARTORIUS BP121S type), electronic clinical thermometer (CITIZEN CT-513W type). • Experiment grouping: • Normal control group; • Model group: lipopolysaccharide fever model; • Positive control group: Aspirin 300 mg/kg group; • Protein BD-3, 10 mg/kg group, 50 mg/kg group. • Method: the method of intraperitoneal injection of Lipopolysaccharide to replicate rat fever model.
# Preparation of experimental animals: After the experimental animals adapt to the experimental environment (temperature 22° C.±2° C., relative humidity 50%±2%) for 1 day. Pre-adaptation to measure rectal temperature at 8:00 and 15:00, rats were fasted and water was taken freely 12 h before experiment, and let the animal to empty its feces before measuring the rectal temperature. Apply petroleum jelly to the electronic thermometer probe before each temperature measurement. Insert the rat rectum 2 cm (can be marked at 2 cm to ensure that the depth of each insertion is consistent), and record the body temperature after the reading is stable.
# Intraperitoneal injection of lipopolysaccharide to replicate rat fever model: The body temperature of the rats was measured before modeling. Qualified rats with a body temperature of 36.2-37.3° C. were selected and randomly divided into groups with 8 rats in each group. After oral administration of aspirin and different doses of protein BD-3, lipopolysaccharide (20 μg/kg, 2 ml/kg) was injected intraperitoneally immediately, and the normal control group was injected intraperitoneally with an equal volume of normal saline. The body temperatures of the rats were monitored after 2 hours for a total of 8 hours.
# According to the body temperature measured at each time point on the day of the experiment, calculate the mean, standard deviation and standard error of the body temperature of each group of rats. The data of each group was compared with TTEST, and P<0.05 was considered as a significant difference.
# [2] = tested on: phenol red excretion in mice; assay: Expectorant test, phenol red excretion method in mice; assay type: in vivo, ICR mice; settings: for Phenol red excretion: X ± SEM, solvent control 0.506 ± 0.040
# Procedure: • Animals: male ICR mice; • Drugs and reagents: Mucosolvan (ambroxol hydrochloride tablets), phenol red, sodium bicarbonate, protein BD-3; • Instruments: centrifuge (Sigma-3K15 type), balance (XS105DU type), Microplate tester (BIO-TEK type). • Experiment Grouping: • Solvent control group; • Mucosolvan 30 mg/kg group; • Protein BD-3, 20 mg/kg group, 50 mg/kg group.
# The animals were fasted and water was taken freely 16 hours before the experiment. Orally administered Mucosolvan and different doses of protein BD-3 (administration volume 10 ml/kg) in groups, and the solvent control group was given the same volume of distilled water. One hour later, 2.5% phenol red solution was injected intraperitoneally. Mice were sacrificed by neck dislocation after 30 minutes. Take a trachea from below the thyroid cartilage to the branch of the trachea, and put the trachea into 3 ml 5% NaHCO3 solution and let it stand for 3 hours. Take 1 ml of the supernatant and centrifuge at 3000 rpm for 5 minutes. Measure and record the absorbance at 546 nm. According to the standard curve of phenol red, the excretion of phenol red was calculated.
# Record the time point of oral administration, the time point of intraperitoneal injection of 2.5% phenol red solution, and the time point of taking the trachea respectively; The absorbance of each group of samples was measured by the microplate reader at 546 nm, Calculate the excretion of phenol red according to the standard curve of phenol red. Calculate the mean and standard error of the data in each group, and use TTEST to compare the solvent control group with other groups, and P<0.05 is considered as a significant difference.
# [3] = tested on: cough induced by ammonia water in mice; assay: Antitussive test, cough induced by ammonia water in mice; assay type: in vivo, ICR mice; settings: for Incubation period (cough) / Number of coughs: X ± SEM; for Incubation period (cough): solvent control 26.9 ± 2.3; for Number of coughs: within 2 minutes, solvent control 67.1 ± 5.7
# Procedure: • Animals: male ICR mice; • Drugs and reagents: dextromethorphan hydrobromide, ammonia water, 0.2% CMC-Na, protein BD-3; • Apparatus: Compressed nebulizer (403T type), balance (XS105DU type). • Experiment grouping: • Solvent control group; • Dextromethorphan 15 mg/kg group; • Protein BD-3, 20 mg/kg group, 50 mg/kg group.
# Dextromethorphan and different doses of protein BD-3 (administration volume 10 ml/kg) were given orally in groups, and the solvent control group was given the same volume of distilled water. One hour later, mice were put into a sealed box and atomized 10% ammonia water for 10 seconds, and then observed and recorded the incubation period of cough in mice and the number of coughs in 2 minutes.
# Record the time point of oral administration, the time point of atomization experiment, the incubation period of mice cough and the number of coughs within 2 minutes, respectively. The incubation period of cough refers to the number of seconds from the start of the atomization of ammonia to the occurrence of cough. The performance of coughing in mice is based on contraction of their abdominal muscles (breast contraction) and opening their mouths at the same time. Calculate the mean and standard error of each group of data, and use TTEST to compare the model group with other groups, and P<0.05 is considered as a significant difference.
# [4] = summary statement, no dose given
molecule,measurement,setting,value
B1,Body temperature 2 hours after modeling,[1]; BD-3 10 mg/kg oral,37.6 ± 0.1 °C
same,Body temperature 4 hours after modeling,[1]; BD-3 10 mg/kg oral,37.9 ± 0.2 °C
same,Body temperature 6 hours after modeling,[1]; BD-3 10 mg/kg oral,37.9 ± 0.2 °C
same,Body temperature 8 hours after modeling,[1]; BD-3 10 mg/kg oral,37.6 ± 0.2 °C
same,Body temperature 2 hours after modeling,[1]; BD-3 50 mg/kg oral,37.2 ± 0.2 °C
same,Body temperature 4 hours after modeling,[1]; BD-3 50 mg/kg oral,37.3 ± 0.2 °C
same,Body temperature 6 hours after modeling,[1]; BD-3 50 mg/kg oral,37.7 ± 0.3 °C
same,Body temperature 8 hours after modeling,[1]; BD-3 50 mg/kg oral,37.6 ± 0.2 °C
same,Effect on body temperature of model rats (in words),"[1]; BD-3 50 mg/kg, at 2 hours and 4 hours after modeling, P<0.05 vs model group",can reduce the body temperature of model rats
same,Summary: antipyretic effect in LPS fever model (in words),[1]; [4],has a significant effect of reducing body temperature rise at 2 hours and 4 hours after modeling
same,Phenol red excretion,[2]; BD-3 20 mg/kg oral,0.750 ± 0.085 µg/mL
same,Excretion of phenol red vs solvent control (in words),"[2]; BD-3 20 mg/kg, P<0.05",significantly increased the excretion of phenol red
same,Phenol red excretion,[2]; BD-3 50 mg/kg oral,0.706 ± 0.114 µg/mL
same,Summary: expectorant effect (in words),[2]; [4],has obvious expectorant effect
same,Incubation period (cough),[3]; BD-3 20 mg/kg oral,31.6 ± 3.3 s
same,Number of coughs,[3]; BD-3 20 mg/kg oral,46.7 ± 4.1
same,Number of coughs vs solvent control (in words),"[3]; BD-3 20 mg/kg, P<0.05",significant improvement in the number of coughs
same,Incubation period (cough),[3]; BD-3 50 mg/kg oral,34.2 ± 2.1 s
same,Number of coughs,[3]; BD-3 50 mg/kg oral,53.6 ± 3.7
same,Cough incubation period vs solvent control (in words),"[3]; BD-3 50 mg/kg, P<0.05",significant improvement in the incubation period
same,Summary: antitussive effect (in words),[3]; [4],"can significantly extend the incubation period, significantly reduce the number of coughs"
